From doi:10.1101/2021.07.14.452405 come the findings set out here.

Experiment [1] addresses Melbournevirus major capsid protein (Melbournevirus). As to the kind of experiment: cryo-EM structure.
Experiment [2] deals with Melbournevirus penton base protein (Melbournevirus). As to the kind of experiment: cryo-EM structure.

Regarding “Melbournevirus major capsid protein (natural protein)”, the stoichiometry N (usually the number of molecules, sites or subunits per partner or assembly) in experiment [1] came to 3. Substance “Melbournevirus penton base protein (natural protein)” had a stoichiometry N in experiment [2] of 5.
